In experiment [1] the target is Cell-associated proTGFβ1 (hGARP-proTGFβ1 and hLRRC33-proTGFβ1). In words: BLI (Octet); Cell AVRG over ECM AVRG.
For experiment [2] the target is unchanged. Description: BLI (Octet).
For experiment [3], the target named is Matrix-associated proTGFβ1 (hLTBP1-proTGFβ1 and hLTBP3-proTGFβ1). Description: BLI (Octet).
Experiment [4] concerns the target Cell-associated proTGFβ1 (hGARP-proTGFβ1 and hLRRC33-proTGFβ1). Description: MSD-SET, hIgG4.
For experiment [5], the target named is Matrix-associated proTGFβ1 (hLTBP1-proTGFβ1 and hLTBP3-proTGFβ1). Description: MSD-SET, hIgG4.
The target in experiment [6] is Cell-associated proTGFβ1 (hGARP-proTGFβ1 and hLRRC33-proTGFβ1). Description: MSD-SET, hIgG4; Cell AVRG over ECM AVRG.

G/D (fold bias), Cell AVRG (average KD) and ECM AVRG (average KD) data for 14 molecules are collected here from US20210122814A1.

B1: Ab21 (antibody, V domains shown)
VH: EVQLVESGGGLVQPGGSLRLSCAASGFTFSSFSMDWVRQAPGKGLEWVSYISPDASTIYYADSVKGRFTISRDNAKNSLYLQMNSLRAEDTAVYYCARGVLDYGDMLDPWGQGTLVTVSS
VL: DIQMTQSPSSLSASVGDRVTITCQASQDITNYLNWYQQKPGKAPKLLIYDASNLETGVPSRFSGSGSGTDFTFTISSLQPEDIATYYCQQADNHPPWTFGGGTKVEIK
B1: in experiment [1], the G/D (fold bias) was 2.61 fold. Also, the Cell AVRG (average KD) in experiment [2] worked out at 644 pM. This molecule also had an ECM AVRG (average KD) in experiment [3] of 246 pM.

B2: Ab30 (antibody, V domains shown)
VH: EVQLVESGGGLVQPGGSLRLSCAASGFTFSSFSMDWVRQAPGKGLEWVSYISPDASTIYYADSVKGRFTISRDNAKNSLYLQMNSLRAEDTAVYYCARGTLDYGDMLDPWGQGTLVTVSS
VL: DIQMTQSPSSLSASVGDRVTITCQASQDITNYLNWYQQKPGKAPKLLIYDASNLETGVPSRFSGSGSGTDFTFTISSLQPEDIATYYCQQADNHPPWTFGGGTKVEIK
Take B2: the Cell AVRG (average KD) came to 81 pM in experiment [4] and 684 pM in experiment [2]. For the same molecule, the ECM AVRG (average KD) is 29 pM in experiment [5] and 296 pM in experiment [3]. Moreover, the G/D (fold bias) stood at 2.8 fold in experiment [6] and 2.31 fold in experiment [1].

B3: Ab31 (antibody, V domains shown)
VH: EVQLVESGGGLVQPGGSLRLSCAASGFTFSSFSMDWVRQAPGKGLEWVSYISPDASTIYYADSVKGRFTISRDNAKNTLYLQMNSLRAEDTAVYYCARAVLDYGDMLDPWGQGTLVTVSS
VL: DIQMTQSPSSLSASVGDRVTITCQASQDITNYLNWYQQKPGKAPKLLIYDASNLETGVPSRFSGSGSGTDFTFTISSLQPEDIATYYCQQADNHPPWTFGGGTKVEIK
Consider B3, for which the results for the Cell AVRG (average KD) in experiment [4] and in experiment [2] were 58 pM and 496 pM, respectively. For the same molecule, the ECM AVRG (average KD) in experiment [5] was determined as 17 pM; in experiment [3], 208 pM. For the same molecule, the G/D (fold bias) was determined as 3.41 fold in experiment [6] and 2.38 fold in experiment [1].

B4: Ab26 (antibody, V domains shown)
VH: EVQLVESGGGLVQPGGSLRLSCAASGFTFSSFSMDWVRQAPGKGLEWVSYISPDASTIYYADSVKGRFTISRDNAKNTLYLQMNSLRAEDTAVYYCARGVLDYGDMLDPWGQGTLVTVSS
VL: DIQMTQSPSSLSASVGDRVTITCQASQDITNYLNWYQQKPGKAPKLLIYDASNLETGVPSRFSGSGSGTDFTFTISSLQPEDIATYYCQQADNHPPWTFGGGTKVEIK
As for B4, the Cell AVRG (average KD) was found to be 72 pM in experiment [4] and 492 pM in experiment [2]. Further, the values for the ECM AVRG (average KD) in experiment [5] and in experiment [3] were 26 pM and 197 pM, respectively. The G/D (fold bias) turned out to be 2.77 fold in experiment [6] and 2.5 fold in experiment [1].

B5: Ab33 (antibody, V domains shown)
VH: EVQLVESGGGLVQPGGSLRLSCAASGFTFSSFSMNWVRQAPGKGLEWVSYISPSADTIYYADSVKGRFTISRDNAKNTLYLQMNSLRAEDTAVYYCAHGVLDYGDMLDPWGQGTLVTVSS
VL: DIQMTQSPSSLSASVGDRVTITCQASQDITNYLNWYQQKPGKAPKLLIYDASNLETGVPSRFSGSGSGTDFTFTISSLQPEDIATYYCQQADNHPPWTFGGGTKVEIK
Consider B5, for which the values for the Cell AVRG (average KD) in experiment [4] and in experiment [2] were 27 pM and 302 pM, respectively. For the same molecule, the ECM AVRG (average KD) in experiment [5] was found to be 9 pM; in experiment [3], 145 pM. Besides, the G/D (fold bias) was found to be 3 fold in experiment [6] and 2.08 fold in experiment [1].

B6: Ab25 (antibody, V domains shown)
VH: EVQLVESGGGLVQPGGSLRLSCAASGFTFGSFSMDWVRQAPGKGLEWVSYISPDASTIYYADSVKGRFTISRDNAKNSLYLQMNSLRAEDTAVYYCARGVLDYGDMLDPWGQGTLVTVSS
VL: DIQMTQSPSSLSASVGDRVTITCQASQDITNYLNWYQQKPGKAPKLLIYDASNLETGVPSRFSGSGSGTDFTFTISSLQPEDIATYYCQQADNHPPWTFGGGTKVEIK
As for B6, the G/D (fold bias) in experiment [1] stood at 2.43 fold. Besides, in experiment [2], the Cell AVRG (average KD) is 448 pM. The molecule further had an ECM AVRG (average KD) in experiment [3] of 184 pM.

B7: Ab22 (antibody, V domains shown)
VH: EVQLVESGGGLVQPGGSLRLSCAASGFTFGSFSMNWVRQAPGKGLEWVSYIHSDASTIYYADSVKGRFTISRDNAKNSLYLQMNSLRAEDTAVYYCARGVLDYGDMLDPWGQGTLVTVSS
VL: DIQMTQSPSSLSASVGDRVTITCQASQDITNYLNWYQQKPGKAPKLLIYDASNLETGVPSRFSGSGSGTDFTFTISSLQPEDIATYYCQQADNHPPWTFGGGTKVEIK
With B7, the Cell AVRG (average KD) came to 114 pM in experiment [4] and 694 pM in experiment [2]. Further, the ECM AVRG (average KD) in experiment [5] turned out to be 42 pM; in experiment [3], 324 pM. In addition, the G/D (fold bias) in experiment [6] was found to be 2.71 fold; in experiment [1] it was 2.15 fold.

B8: Ab28 (antibody, V domains shown)
VH: EVQLVESGGGLVQPGGSLRLSCAASGFTFSSFSMDWVRQAPGKGLEWVSYISPDASTIYYADSVKGRFTISRDNAKNSLYLQMNSLRAEDTAVYYCVRGVLDYGDMLDPWGQGTLVTVSS
VL: DIQMTQSPSSLSASVGDRVTITCQASQDITNYLNWYQQKPGKAPKLLIYDASNLETGVPSRFSGSGSGTDFTFTISSLQPEDIATYYCQQADNHPPWTFGGGTKVEIK
Consider B8, for which, in experiment [1], the G/D (fold bias) was determined as 1.84 fold. In addition, the Cell AVRG (average KD) in experiment [2] was found to be 603 pM. In experiment [3], this molecule had an ECM AVRG (average KD) of 328 pM.

B9: Ab24 (antibody, V domains shown)
VH: EVQLVESGGGLVQPGRSLRLSCAASGFTFSSFAMYWVRQAPGKGLEWVSYISPDASTIYYADSVKGRFTISRDNAKNSLYLQMNSLRAEDTAVYYCARGVLDYGDMLDPWGQGTLVTVSS
VL: DIQMTQSPSSLSASVGDRVTITCQASQDITNYLNWYQQKPGKAPKLLIYDASNLETGVPSRFSGSGSGTDFTFTISSLQPEDIATYYCQQADNHPPWTFGGGTKVEIK
On to B9, for which the results for the Cell AVRG (average KD) in experiment [4] and in experiment [2] were 100 pM and 538 pM, respectively. In addition, the ECM AVRG (average KD) came to 23 pM in experiment [5] and 222 pM in experiment [3]. Besides, the values for the G/D (fold bias) in experiment [6] and in experiment [1] were 4.35 fold and 2.42 fold, respectively.

B10: Ab32 (antibody, V domains shown)
VH: EVQLVESGGGLVQPGGSLRLSCAASGFTFSSFSMNWVRQAPGKGLEWVSYISPSADTIYYADSVKGRFTISRDNAKNTLYLQMNSLRAEDTAVYYCARGVWDMGDMLDPWGQGTLVTVSS
VL: DIQMTQSPSSLSASVGDRVTITCQASQDITNYLNWYQQKPGKAPKLLIYDASNLETGVPSRFSGSGSGTDFTFTISSLQPEDIATYYCQQADNHPPWTFGGGTKVEIK
Consider B10, for which the Cell AVRG (average KD) in experiment [4] worked out at 51 pM; in experiment [2], 597 pM. In addition, the ECM AVRG (average KD) in experiment [5] amounted to 32 pM; in experiment [3], 242 pM. Further, the G/D (fold bias) in experiment [6] came out at 1.6 fold; in experiment [1] it was 2.47 fold.

B11: Ab4 (antibody, IgG4, V domains shown)
VH: EVQLVESGGGLVQPGGSLRLSCAASGFTFSSYSMNWVRQAPGKGLEWVSYISSSSSTIYYADSVKGRFTISRDNAKNSLYLQMNSLRAEDTAVYYCARGVLDYGDMLDPWGQGTLVTVSS
VL: DIQMTQSPSSLSASVGDRVTITCQASQDITNYLNWYQQKPGKAPKLLIYDASNLETGVPSRFSGSGSGTDFTFTISSLQPEDIATYYCQQADNHPPWTFGGGTKVEIK
B11 returned a Cell AVRG (average KD) in experiment [4] of 2300 pM. In experiment [5], this molecule yielded an ECM AVRG (average KD) of 5050 pM. Further, in experiment [6], the G/D (fold bias) amounted to 0.42 fold.

B12: Ab29 (antibody, V domains shown)
VH: EVQLVESGGGLVQPGRSLRLSCAASGFTFSSFAMNWVRQAPGKGLEWVSYISPDASTIYYAGSVKGRFTISRDNAKNSLYLQMNSLRAEDTAVYYCVRAVLDYGDMLDPWGQGTLVTVSS
VL: DIQMTQSPSSLSASVGDRVTITCQASQDITNYLNWYQQKPGKAPKLLIYDASNLETGVPSRFSGSGSGTDFTFTISSLQPEDIATYYCQQADNHPPWTFGGGTKVEIK
Regarding B12, the figures for the Cell AVRG (average KD) in experiment [4] and in experiment [2] were 24 pM and 304 pM, respectively. For the same molecule, the results for the ECM AVRG (average KD) in experiment [5] and in experiment [3] were 12 pM and 155 pM, respectively. Also, the values for the G/D (fold bias) in experiment [6] and in experiment [1] were 2 fold and 1.97 fold, respectively.

B13: Ab23 (antibody, V domains shown)
VH: EVQLVESGGGLVQPGGSLRLSCAASGFTFSSFSMNWVRQAPGKGLEWVSYISPSADTIYYADSVKGRFTISRDNAKNTLYLQMNSLRAEDTAVYYCARGVLDYGDMLDPWGQGTLVTVSS
VL: DIQMTQSPSSLSASVGDRVTITCQASQDITNYLNWYQQKPGKAPKLLIYDASNLETGVPSRFSGSGSGTDFTFTISSLQPEDIATYYCQQADNHPPWTFGGGTKVEIK
On to B13, for which, in experiment [1], the G/D (fold bias) was 2.03 fold. In addition, in experiment [2], the Cell AVRG (average KD) stood at 898 pM. In experiment [3], this molecule registered an ECM AVRG (average KD) of 442 pM.

B14: Ab27 (antibody, V domains shown)
VH: EVQLVESGGGLVQPGGSLRLSCAASGFTFSFYAMNWVRQAPGKGLEWVSYISPDASTIYYADSVKGRFTISRDNAKNSLYLQMNSLRAEDTAVYYCARGVLDYGDMLDPWGQGTLVTVSS
VL: DIQMTQSPSSLSASVGDRVTITCQASQDITNYLNWYQQKPGKAPKLLIYDASNLETGVPSRFSGSGSGTDFTFTISSLQPEDIATYYCQQADNHPPWTFGGGTKVEIK
Turning to B14, in experiment [1], the G/D (fold bias) stood at 1.74 fold. The Cell AVRG (average KD) in experiment [2] stood at 362 pM. The ECM AVRG (average KD) in experiment [3] is 208 pM.
